Experimental data taken from US20240350583A1, “COMPOSITION FOR PREVENTING OR TREATING FIBROTIC DISEASES, COMPRISING HAPLN1” (Chung Ang University Industry Academic Cooperation …, priority 2021, published 2024).
Entries after “also recorded” stand apart in the source; their conditions may differ.

B1: rhHAPLN1: recombinant human HAPLN1 protein of SEQ ID NO: 1 produced in CHO-K1 cells, stabilized in acetic acid buffer, sucrose, PS80, pH 5.0 (protein, listed as Homo sapiens)
chain: MKSLLLLVLISICWADHLSDNYTLDHDRAIHIQAENGPHLLVEAEQAKVFSHRGGNVTLPCKFYRDPTAFGSGIHKIRIKWTKLTSDYLKEVDVFVSMGYHKKTYGGYQGRVFLKGGSDSDASLVITDLTLEDYGRYKCEVIEGLEDDTVVVALDLQGVVFPYFPRLGRYNLNFHEAQQACLDQDAVIASFDQLYDAWRGGLDWCNAGWLSDGSVQYPITKPREPCGGQNTVPGVRNYGFWDKDKSRYDVFCFTSNFNGRFYYLIHPTKLTYDEAVQACLNDGAQIAKVGQIFAAWKILGYDRCDAGWLADGSVRYPISRPRRRCSPTEAAVRFVGFPDKKHKLYGVYCFRAYN

How the values were obtained:
[1] = test system: bleomycin-induced pulmonary fibrosis; details: orally once daily, 14-day and 28-day groups; cited from earlier work
[2] = test system: REMyOF system (renal proximal tubule epithelial cells and adult fibroblasts); experiment: BioMAP Fibrosis panel, REMyOF system (kidney fibrosis model), ELISA; format: cell-based
From the text: (§1) The anti-fibrotic action effect of the composition of the present disclosure on pulmonary fibrosis and kidney fibrosis was verified by examining the expression level of various fibrosis markers using the BioMAP Fibrosis Panel (provided by Eurofins discovery).
(§2) BioMAP Fibrosis panel consists of three models, SAEMyoF system (co-culturing small airway epithelial cells and adult fibroblasts), REMyOF system (co-culture of renal proximal tubule epithelial cells and adult fibroblasts), and MyOF system (differentiated lung myofibroblasts). Here, the SAEMyoF system represents interstitial lung diseases (IDL), including pulmonary fibrotic diseases such as idiopathic pulmonary fibrosis (IPF), and the REMyOF system represents kidney fibrosis disease, which is associated with end-stage renal failure. However, experiments were conducted to confirm the effect of the MyoF system only on myofibroblasts.
(§3) (1) Each primary cell was used by pooling cells from multiple donors (n=3 to 6), and cells were first cultured in 96-well plates to confluence before adding a peripheral blood mononuclear cell (PBMC).
(§4) (2) Subsequently, the cells were then each treated with the composition of the present disclosure (rhHAPLN1 protein content of 0, 3.7, 11, and 33 ng/ml) at different concentrations and cultured for 1 hour.
(§5) (3) The plates were then treated with TNF and TGFβ1 and incubated for 48 hours.
(§6) (4) Direct enzyme-linked immunosorbent assay (ELISA) was performed on the expression levels of various biomarkers.
(§7) Each quantitative value was compared as a relative fold change compared to the vehicle control. Statistical processing was performed using unpaired t-test, significant differences vs vehicle control, *p<0.05, **p<0.01, and ***p<0.001.

[3] = test system: renal proximal tubule epithelial cell (RPTEC); experiment: Age-induced fibrosis of RPTEC (passage 11), αSMA western blot; format: cell-based; details: aged cells (P11); rhHAPLN1 100 ng/ml; 72 hours
Description: (1) Renal proximal tubule epithelial cell (RPTEC) of the 3rd passage culture and 10th passage culture were seeded (5.0×10^5 cells) in 60Φ culture dishes and cultured in complete renal epithelial cell medium (ATCC PCS-400-030+ATCC PCS-400-040) in an incubator at 37° C. 5% CO2 for 24 hours.
(2) Subsequently, the cells were then treated with the composition of the present disclosure (rhHAPLN1 protein content of 0, 10, and 100 ng/ml, respectively) and cultured for an additional 72 hours.
(4) After washing three times with ice-cold PBS, each well was treated with 300 μl of RIPA lysis and extraction buffer including protease inhibitors and phosphatase inhibitors, scraped with a scraper to harvest cells, and transferred to an E-tube.
(§8) (5) By centrifugation (12000 rpm, 20 minutes, 4° C.), only the supernatant was obtained, and BCA assay was performed to obtain quantitative protein values.
(6) Using a 4% to 15% precast acrylamide PAGE gel, proteins were loaded at 20 μg per lane and run (80V-20 minutes, 120V-1 hour 30 minutes).
(7) Western blot was performed on the samples. Here, anti-αSMA Ab (Abcam, ab7817), anti-GAPDH Ab (Santa Cruz, sc-32233) were used as primary antibodies and HRP-conjugated anti-mouse IgG Ab (CST, #7076) as secondary antibodies.

[4] = test system: SAEMyoF system (small airway epithelial cells and adult fibroblasts); experiment: BioMAP Fibrosis panel, SAEMyoF system (pulmonary fibrosis model), ELISA; format: cell-based
From the text: as §1, §2, §3, §4, §5, §6, §7

[5] = test system: human kidney renal tubule cell (Human Kidney 2, HK-2); experiment: Anti-fibrotic efficacy in HK-2 cells (drug after TGFβ1), αSMA western blot; format: cell-based
Description: (1) Human kidney renal tubule cells (HK-2) were seeded (2.8×10^5 cells/well) in a […] according to the experimental scheme of FIG. 7A and incubated in RPMI 1640 Medium (11875-093, Gibco) including 10% FBS for 24 hours in an incubator at 37° C. 5% CO2.
(2) Afterwards, the plates were washed several times with PBS, and each well of the plate was treated with TGFβ1 (5 ng/ml) and incubated for 24 hours.
(3) Subsequently, the plates were then treated with the composition of the present disclosure (rhHAPLN1 protein content of 0, 5, 10, 20, and 50 ng/ml) and pirfenidone 0.2 mg/mL (200 μg/mL), respectively, and incubated for 48 hours.
(4) Each sample was then washed several times with ice-cold PBS, treated with radioimmunoprecipitation assay (RIPA) lysis and extraction buffer (Thermo Scientific) including protease and phosphatase inhibitors, scraped with a scraper, and transferred to an E-tube.
as §8
(6) After quantification using the obtained quantitative value, cooking was performed at 100° C. for 3 minutes and then stored in a −20° C. refrigerator. […]
(11) After washing three times with TBST for 10 minutes each, the samples were detected by Chemidoc.

[6] = regardless of rhHAPLN1 content (3.7, 11, 33 ng/ml)

Molecule	level of TGFβ1 increased by bleomycin [1]	level of periostin increased by bleomycin [1]	optimal concentration for anti-fibrotic efficacy in the kidney (assumed) ([2]; collagen I) [ng/mL]	expression level of collagen I, fold change compared to vehicle control (FIG. 11B) [2, 6] [fold]	expression level of collagen I, fold change compared to vehicle control (FIG. 11B) ([2]; rhHAPLN1 11 ng/ml) [fold]	decrease of expression amount of αSMA protein compared to composition without rhHAPLN1 (FIG. 9B) [3]	expression level of collagen I compared to vehicle control (FIG. 11A) [4, 6]	expression level of αSMA, fold change compared to vehicle control (FIG. 11A) ([4]; regardless of rhHAPLN1 content (3.7, 11, 33 ng/ml), TNF and TGFβ1 48 hours) [fold]	expression level of collagen I, fold change compared to vehicle control (FIG. 11A) ([4]; rhHAPLN1 11 ng/ml) [fold]	anti-fibrotic efficacy (αSMA) compared to pirfenidone 0.2 mg/ml ([5]; rhHAPLN1 50 ng/ml)	anti-fibrotic efficacy (αSMA) compared to composition that does not include rhHAPLN1 protein (FIG. 7B, FIG. 7C) ([5]; rhHAPLN1 10 to 50 ng/ml, 48 hours after 24 hours TGFβ1)
Cc1ccc(=O)n(-c2ccccc2)c1 [pirfenidone, reference compound]	decreased	decreased	–	–	–	–	–	–	–	–	–
B1	–	–	11	≤ 0.9	~0.7	about ⅓	consistently significantly reduced	≤ 0.9	≤ 0.8	almost equivalent to that of pirfenidone	superior anti-fibrotic action; also recorded: excellent anti-fibrotic efficacy
